Test results published in patent publication US20230083670A1 (IMMUNEONCO BIOPHARMACEUTICALS SHANGHAI, published 2023).

B1: IMM2515 (antibody, human IgG1, kappa, V domains shown)
VH: QVQLVQSGAEVKKPGASVKVSCKASGYTFTSNWMHWVRQAPGQGLEWMGMIHPNSGSSNYNEKFKSRVTMTRDTSTSTVYMELSSLRSEDTAVYYCARSYYGSSPYYFDYWGQGTLVTVSS
VL: DIQMTQSPSSLSASVGDRVTITCRASQDIINYLNWYQQKPGKAPKLLIYYTSRLHSGVPSRFSGSGSGTDFTFTISSLQPEDIATYYCQQGDTLPWTFGQGTKVEIKR
notes: also called monoclonal anti-PD-L1 antibody; monospecific anti-PD-L1 antibody IMM2515
B2: IMM2521 (bispecific antibody, human IgG1, kappa)
heavy: QVQLVQSGAEVKKPGASVKVSCKASGYTFTSNWMHWVRQAPGQGLEWMGMIHPNSGSSNYNEKFKSRVTMTRDTSTSTVYMELSSLRSEDTAVYYCARSYYGSSPYYFDYWGQGTLVTVSSASTKGPSVFPLAPSSKSTSGGTAALGCLVKDYFPEPVTVSWNSGALTSGVHTFPAVLQSSGLYSLSSVVTVPSSSLGTQTYICNVNHKPSNTKVDKRVEPKSCDKTHTCPPCPAPELLGGPSVFLFPPKPKDTLMISRTPEVTCVVVDVSHEDPEVKFNWYVDGVEVHNAKTKPREEQYNATYRVVSVLTVLHQDWLNGKEYKCKVSNKALPAPIAATISKAKGQPREPQVYTLPPSREEMTKNQVSLTCLVKGFYPSDIAVEWESNGQPENNYKTTPPVLDSDGSFFLYSKLTVDKSRWQQGNVFSCSVMHEALHNHYTQKSLSLSPGK
light: not shown
notes: SIRPαD1 mutant linked through the linker to the N-terminus of each light chain of IMM2515; also called recombinant fusion protein IMM2521; PD-L1×CD47 bispecific

Columns and labels:
[1] = target: T1, PD-L1 on CHO cells expressing human PD-L1 (CHO-PDL1) (human, UniProt Q9NZQ7 19-290); assay: flow cytometry competition; blocks Biotin-hPD1-mFc (1 µg/ml) on CD47- PD-L1+ CHO cells
T1 construct: whole, on cells; Species is stated as human for the CHO-PDL1 cells; also called CHO-PD-L1 cells; Raji-PD-L1 cells
T1 sequence (Q9NZQ7 19-290): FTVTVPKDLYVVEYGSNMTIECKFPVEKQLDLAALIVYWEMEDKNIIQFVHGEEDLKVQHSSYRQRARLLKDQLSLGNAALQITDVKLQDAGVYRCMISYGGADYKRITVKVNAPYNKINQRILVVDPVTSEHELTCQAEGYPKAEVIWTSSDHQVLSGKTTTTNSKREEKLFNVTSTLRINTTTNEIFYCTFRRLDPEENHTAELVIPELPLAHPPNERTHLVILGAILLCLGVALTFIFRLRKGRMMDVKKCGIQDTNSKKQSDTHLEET
Protocol: Cells were incubated at 4° C. for 45 minutes, washed with PBS, and then further incubated at 4° C. for another 45 minutes with PE-conjugated mouse Anti-human CD279 (Cat #557946, BD BioScience).

CD47 on Jurkat cells [2] = target: T2, CD47 on Jurkat cells (UniProt Q08722 19-323, limits assumed); assay: flow cytometry on Jurkat cells, FITC anti-human IgG-Fc
T2 construct: whole, on cells; also called CD47-expressing Raji cells
Protocol: (§1) Cells were washed with cold PBS twice, and then incubated with FITC-conjugated secondary antibody against human IgG-Fc (Cat #F9512, Sigma) for 45 min. Cells were washed twice and re-suspended in […] PBS. Then, the cells were subject to FACS analysis using a flow cytometer (Merck Millipore, Guava® easyCyte 5HT).

[3] = target: T1, PD-L1 on CHO cells expressing human …; assay: flow cytometry on CHO-PD-L1 cells, FITC anti-human IgG-Fc
Protocol: as §1

CD47 on Jurkat cells [4] = target: T2, CD47 on Jurkat cells; assay: flow cytometry competition; blocks FITC-SIRPα-Fc (80 nM) on PD-L1- CD47+ Raji cells
Protocol: The mixtures were added to a 96-well plate containing PD-L1⁻ or PD-L1⁺ CD47-expressing Raji cells, and the plate was incubated at 4° C. for 45 minutes.

Row | Binder | IC50 [1] | EC50 (CD47 on Jurkat cells [2]) | EC50 [3] | IC50 (CD47 on Jurkat cells [4])
1 | B1 | < 1 nM | – | – | –
2 | B2 | < 1 nM | 0.7 nM | 0.11 nM | 140 nM
